Laboratory results: patent publication US20190077860A1 (EISAI R AND D MANAGEMENT, published 2019)

T1: human EphA1 extracellular region-SEAP-His protein (human, UniProt P21709 26-547)
T1 construct: extracellular domain; also called hEphA1-SEAP-His
T1 sequence (looked up): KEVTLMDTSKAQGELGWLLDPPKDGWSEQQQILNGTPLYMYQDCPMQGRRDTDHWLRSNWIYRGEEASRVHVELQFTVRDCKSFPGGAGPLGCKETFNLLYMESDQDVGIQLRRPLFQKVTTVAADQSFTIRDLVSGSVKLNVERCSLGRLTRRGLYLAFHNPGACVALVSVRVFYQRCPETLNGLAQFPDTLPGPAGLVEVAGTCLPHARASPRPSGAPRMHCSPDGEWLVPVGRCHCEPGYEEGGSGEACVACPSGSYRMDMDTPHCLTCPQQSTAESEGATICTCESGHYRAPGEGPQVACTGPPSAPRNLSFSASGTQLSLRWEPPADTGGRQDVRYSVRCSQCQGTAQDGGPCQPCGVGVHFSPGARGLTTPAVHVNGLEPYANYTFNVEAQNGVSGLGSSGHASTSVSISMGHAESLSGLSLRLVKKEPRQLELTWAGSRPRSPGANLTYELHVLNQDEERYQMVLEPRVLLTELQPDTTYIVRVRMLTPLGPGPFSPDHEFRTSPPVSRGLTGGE

T2: human EphA7 extracellular region-SEAP-His protein (human, UniProt Q15375 28-555)
T2 construct: extracellular domain; also called hEphA7-SEAP-His
T2 sequence (looked up): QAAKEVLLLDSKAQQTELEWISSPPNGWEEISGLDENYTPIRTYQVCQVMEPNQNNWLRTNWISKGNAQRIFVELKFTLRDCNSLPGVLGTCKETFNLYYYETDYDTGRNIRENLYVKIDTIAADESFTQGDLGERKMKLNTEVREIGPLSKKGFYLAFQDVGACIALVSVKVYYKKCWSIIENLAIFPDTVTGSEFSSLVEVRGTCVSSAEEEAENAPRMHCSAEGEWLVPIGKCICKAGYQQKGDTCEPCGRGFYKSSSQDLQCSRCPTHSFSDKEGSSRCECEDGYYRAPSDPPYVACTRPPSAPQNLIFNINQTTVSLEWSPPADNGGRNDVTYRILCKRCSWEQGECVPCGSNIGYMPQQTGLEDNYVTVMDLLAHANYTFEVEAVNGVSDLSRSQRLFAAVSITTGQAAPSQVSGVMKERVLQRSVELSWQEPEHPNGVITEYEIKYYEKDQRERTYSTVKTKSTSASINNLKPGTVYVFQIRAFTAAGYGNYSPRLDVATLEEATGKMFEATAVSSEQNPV

T3: human EphA8 extracellular region-SEAP-His protein (human, UniProt P29322 28-542)
T3 construct: extracellular domain; also called hEphA8-SEAP-His
T3 sequence (looked up): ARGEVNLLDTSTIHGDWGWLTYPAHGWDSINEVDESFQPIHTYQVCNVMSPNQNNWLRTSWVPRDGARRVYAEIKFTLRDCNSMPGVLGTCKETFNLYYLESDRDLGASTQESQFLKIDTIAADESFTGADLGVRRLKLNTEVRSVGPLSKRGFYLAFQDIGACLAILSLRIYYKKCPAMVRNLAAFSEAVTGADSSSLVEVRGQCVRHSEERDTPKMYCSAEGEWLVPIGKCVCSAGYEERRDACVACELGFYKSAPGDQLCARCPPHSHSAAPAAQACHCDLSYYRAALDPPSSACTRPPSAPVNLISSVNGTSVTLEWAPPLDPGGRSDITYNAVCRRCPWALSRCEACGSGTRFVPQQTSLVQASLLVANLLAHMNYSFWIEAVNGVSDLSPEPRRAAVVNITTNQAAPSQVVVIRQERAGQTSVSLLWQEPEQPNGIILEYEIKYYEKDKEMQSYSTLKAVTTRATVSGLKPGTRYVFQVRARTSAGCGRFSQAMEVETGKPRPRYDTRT

T4: human EphB3 extracellular region-SEAP-His protein (human, UniProt P54753 34-559)
T4 construct: extracellular domain; also called hEphB3-SEAP-His
T4 sequence (looked up): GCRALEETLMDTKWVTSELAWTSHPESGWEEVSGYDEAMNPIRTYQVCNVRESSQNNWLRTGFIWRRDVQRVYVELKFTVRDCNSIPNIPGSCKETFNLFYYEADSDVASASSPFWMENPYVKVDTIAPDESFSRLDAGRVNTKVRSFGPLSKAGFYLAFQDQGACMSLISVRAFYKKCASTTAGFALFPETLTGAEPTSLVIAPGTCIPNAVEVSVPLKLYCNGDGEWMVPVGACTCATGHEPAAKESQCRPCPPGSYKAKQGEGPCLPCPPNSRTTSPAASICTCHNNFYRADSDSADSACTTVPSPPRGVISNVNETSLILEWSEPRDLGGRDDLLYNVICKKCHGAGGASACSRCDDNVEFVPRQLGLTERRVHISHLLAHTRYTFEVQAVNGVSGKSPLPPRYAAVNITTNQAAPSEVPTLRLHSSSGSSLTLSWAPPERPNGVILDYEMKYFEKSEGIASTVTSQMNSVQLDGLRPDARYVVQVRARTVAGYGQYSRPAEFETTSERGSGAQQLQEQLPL


What was measured:
Experiment in all cases: ELISA
[1] = molecular target: T1, human EphA1 extracellular …
[2] = molecular target: T5, human EphA5 extracellular region-SEAP-His protein (human, UniProt P54756 25-573)
T5 construct: extracellular domain; also called hEphA5-SEAP-His

[3] = molecular target: T2, human EphA7 extracellular …
[4] = molecular target: T3, human EphA8 extracellular …
[5] = molecular target: T4, human EphB3 extracellular …
[6] = molecular target: T6, human EphA4 extracellular region-SEAP-His protein (human, UniProt P54764 20-547)
T6 construct: also called hEphA4-SEAP-His
T6 sequence (P54764 20-547): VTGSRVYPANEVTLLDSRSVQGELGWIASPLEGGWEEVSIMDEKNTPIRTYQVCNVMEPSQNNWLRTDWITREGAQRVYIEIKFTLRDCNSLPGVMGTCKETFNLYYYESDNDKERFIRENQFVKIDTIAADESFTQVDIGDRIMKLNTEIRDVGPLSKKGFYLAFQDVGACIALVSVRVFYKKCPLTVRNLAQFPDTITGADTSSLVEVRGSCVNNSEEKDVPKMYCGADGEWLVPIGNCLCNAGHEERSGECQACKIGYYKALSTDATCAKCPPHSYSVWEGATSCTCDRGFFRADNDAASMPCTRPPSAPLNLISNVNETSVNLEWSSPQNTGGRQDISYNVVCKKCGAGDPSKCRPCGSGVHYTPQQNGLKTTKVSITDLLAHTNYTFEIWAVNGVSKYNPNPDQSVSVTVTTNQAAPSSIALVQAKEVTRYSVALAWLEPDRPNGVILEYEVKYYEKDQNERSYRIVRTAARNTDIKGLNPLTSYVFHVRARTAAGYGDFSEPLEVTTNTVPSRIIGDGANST

T5 sequence (P54756 25-573): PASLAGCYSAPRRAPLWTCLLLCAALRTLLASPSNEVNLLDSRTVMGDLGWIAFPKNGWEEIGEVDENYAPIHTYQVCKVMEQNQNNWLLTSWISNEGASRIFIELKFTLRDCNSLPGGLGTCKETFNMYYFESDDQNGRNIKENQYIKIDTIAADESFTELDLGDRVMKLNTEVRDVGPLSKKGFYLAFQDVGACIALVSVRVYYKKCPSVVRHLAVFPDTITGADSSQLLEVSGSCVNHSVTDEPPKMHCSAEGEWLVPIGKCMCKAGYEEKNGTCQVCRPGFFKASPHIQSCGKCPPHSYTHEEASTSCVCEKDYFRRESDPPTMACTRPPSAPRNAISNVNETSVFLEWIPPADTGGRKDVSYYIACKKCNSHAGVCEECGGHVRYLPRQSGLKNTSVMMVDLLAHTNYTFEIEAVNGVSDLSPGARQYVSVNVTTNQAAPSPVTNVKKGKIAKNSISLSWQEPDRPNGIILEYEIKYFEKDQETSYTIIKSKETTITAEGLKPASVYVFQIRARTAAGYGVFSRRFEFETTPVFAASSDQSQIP

Row | Binder | A450 as % of hEphA4-SEAP-His [1] | A450 as % of hEphA4-SEAP-His [2] | A450 as % of hEphA4-SEAP-His [3] | A450 as % of hEphA4-SEAP-His [4] | A450 as % of hEphA4-SEAP-His [5] | A450 as % of hEphA4-SEAP-His [6]
1 | humanized antibody No. 136 (antibody, human IgG2, human Ig kappa; also called L2-4/HK2) heavy: QVQLVQSGSELKKPGASVKVSCKASGYTFTDYSMHWVRQAPGQGLKWMGWINTETGEPTYADDFKGRFVFSLDTSVSTAYLQISSLKAEDTAVYYCARIPLYYYGSRYWYFDVWGQGTTVTVSSASTKGPSVFPLAPSSRSTSESTAALGCLVKDYFPEPVTVSWNSGALTSGVHTFPAVLQSSGLYSLSSVVTVPSSNFGTQTYTCNVDHKPSNTKVDKTVERKSCVECPPCPAPPAAAPSVFLFPPKPKDTLMISRTPEVTCVVVDVSHEDPEVQFNWYVDGVEVHNAKTKPREEQFNSTFRVVSVLTVVHQDWLNGKEYKCKVSNKGLPAPIEKTISKTKGQPREPQVYTLPPSREEMTKNQVSLTCLVKGFYPSDIAVEWESNGQPENNYKTTPPMLDSDGSFFLYSKLTVDKSRWQQGNVFSCSVMHEALHNHYTQKSLSLSPG light: EIVMTQSPATLSVSPGERATLSCRASENIYRNLAWYQQKPGQSPRLLIYAATNLADGIPARFSGSGSGTEYTLTISSLQSEDFAVYYCQHFWGTPWTFGQGTKVEIKRTVAAPSVFIFPPSDEQLKSGTASVVCLLNNFYPREAKVQWKVDNALQSGNSQESVTEQDSKDSTYSLSSTLTLSKADYEKHKVYACEVTHQGLSSPVTKSFNRGEC | 5.3% | 5.2% | 5.4% | 5.4% | 5.5% | 100%
2 | humanized antibody No. 94 (antibody, human IgG1, kappa, human Ig kappa; also called L2-4/HA2) heavy: QVQLVQSGSELKKPGASVKVSCKASGYTFTDYSMHWVRQAPGQGLKWMGWINTETGEPTYAQGFTGRFVFSLDTSVSTAYLQISSLKAEDTAVYYCARIPLYYYGSRYWYFDVWGQGTTVTVSSASTKGPSVFPLAPSSKSTSGGTAALGCLVKDYFPEPVTVSWNSGALTSGVHTFPAVLQSSGLYSLSSVVTVPSSSLGTQTYICNVNHKPSNTKVDKRVEPKSCDKTHTCPPCPAPPAAAPSVFLFPPKPKDTLMISRTPEVTCVVVDVSHEDPEVQFNWYVDGVEVHNAKTKPREEQFNSTFRVVSVLTVVHQDWLNGKEYKCKVSNKGLPAPIEKTISKTKGQPREPQVYTLPPSREEMTKNQVSLTCLVKGFYPSDIAVEWESNGQPENNYKTTPPMLDSDGSFFLYSKLTVDKSRWQQGNVFSCSVMHEALHNHYTQKSLSLSPG light: EIVMTQSPATLSVSPGERATLSCRASENIYRNLAWYQQKPGQSPRLLIYAATNLADGIPARFSGSGSGTEYTLTISSLQSEDFAVYYCQHFWGTPWTFGQGTKVEIKRTVAAPSVFIFPPSDEQLKSGTASVVCLLNNFYPREAKVQWKVDNALQSGNSQESVTEQDSKDSTYSLSSTLTLSKADYEKHKVYACEVTHQGLSSPVTKSFNRGEC | 6.5% | 6.5% | 6.1% | 7% | 6.7% | 100%
3 | humanized antibody No. 71 (antibody, human IgG1, kappa, human Ig kappa; also called L2-4/HA4) heavy: QIQLVQSGSELKKPGASVKVSCKASGYTFTDYSMHWVRQAPGQGLKWMGWINTETGEPTYAQGFTGRFVFSLDTSVSTAYLQISSLKAEDTAVYYCARIPLYYYGSRYWYFDVWGQGTTVTVSSASTKGPSVFPLAPSSKSTSGGTAALGCLVKDYFPEPVTVSWNSGALTSGVHTFPAVLQSSGLYSLSSVVTVPSSSLGTQTYICNVNHKPSNTKVDKRVEPKSCDKTHTCPPCPAPPAAAPSVFLFPPKPKDTLMISRTPEVTCVVVDVSHEDPEVQFNWYVDGVEVHNAKTKPREEQFNSTFRVVSVLTVVHQDWLNGKEYKCKVSNKGLPAPIEKTISKTKGQPREPQVYTLPPSREEMTKNQVSLTCLVKGFYPSDIAVEWESNGQPENNYKTTPPMLDSDGSFFLYSKLTVDKSRWQQGNVFSCSVMHEALHNHYTQKSLSLSPG light: EIVMTQSPATLSVSPGERATLSCRASENIYRNLAWYQQKPGQSPRLLIYAATNLADGIPARFSGSGSGTEYTLTISSLQSEDFAVYYCQHFWGTPWTFGQGTKVEIKRTVAAPSVFIFPPSDEQLKSGTASVVCLLNNFYPREAKVQWKVDNALQSGNSQESVTEQDSKDSTYSLSSTLTLSKADYEKHKVYACEVTHQGLSSPVTKSFNRGEC | 5.6% | 5.6% | 5.2% | 5.3% | 5.5% | 100%
4 | humanized antibody No. 137 (antibody, human IgG2, human Ig kappa; also called L2-4/HK4) heavy: QIQLVQSGSELKKPGASVKVSCKASGYTFTDYSMHWVRQAPGQGLKWMGWINTETGEPTYADDFKGRFVFSLDTSVSTAYLQISSLKAEDTAVYYCARIPLYYYGSRYWYFDVWGQGTTVTVSSASTKGPSVFPLAPSSRSTSESTAALGCLVKDYFPEPVTVSWNSGALTSGVHTFPAVLQSSGLYSLSSVVTVPSSNFGTQTYTCNVDHKPSNTKVDKTVERKSCVECPPCPAPPAAAPSVFLFPPKPKDTLMISRTPEVTCVVVDVSHEDPEVQFNWYVDGVEVHNAKTKPREEQFNSTFRVVSVLTVVHQDWLNGKEYKCKVSNKGLPAPIEKTISKTKGQPREPQVYTLPPSREEMTKNQVSLTCLVKGFYPSDIAVEWESNGQPENNYKTTPPMLDSDGSFFLYSKLTVDKSRWQQGNVFSCSVMHEALHNHYTQKSLSLSPG light: EIVMTQSPATLSVSPGERATLSCRASENIYRNLAWYQQKPGQSPRLLIYAATNLADGIPARFSGSGSGTEYTLTISSLQSEDFAVYYCQHFWGTPWTFGQGTKVEIKRTVAAPSVFIFPPSDEQLKSGTASVVCLLNNFYPREAKVQWKVDNALQSGNSQESVTEQDSKDSTYSLSSTLTLSKADYEKHKVYACEVTHQGLSSPVTKSFNRGEC | 6.1% | 5.7% | 5.8% | 5.9% | 5.7% | 100%
